This note sets out measurements from patent publication US20260265379A1.

The experiment addresses PD-L1 at the surface of transduced cells (UniProt Q9NZQ7). In words: flow cytometry, CHO-PD-L1 cells.

Chain of PD-L1 at the surface of transduced cells (Q9NZQ7 19-290 limits assumed): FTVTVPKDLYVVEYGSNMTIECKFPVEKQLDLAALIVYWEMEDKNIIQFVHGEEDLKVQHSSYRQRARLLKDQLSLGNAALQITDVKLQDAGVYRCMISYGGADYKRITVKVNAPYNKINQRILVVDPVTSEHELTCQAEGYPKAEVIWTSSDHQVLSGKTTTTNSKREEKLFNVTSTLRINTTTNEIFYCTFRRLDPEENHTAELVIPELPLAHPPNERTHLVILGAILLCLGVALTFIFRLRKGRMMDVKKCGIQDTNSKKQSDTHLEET

In turn, Isotype Durvalumab (antibody) returned an MFI at 10 nM of 38000 MFI and an MFI at 100 nM of 41600 MFI.
